Measured values: patent publication EP4792886A2, “CNP PRODRUGS” (Ascendis Pharma Growth Disorders A/S, priority 2015, dated 2016)
Bridges are numbered along the chain shown (N, C = ends). Where no end group is shown, it is not given here. The star is where a group is joined. Hexanoyl(6-maleimido) = O=C1C=CC(=O)N1CCCCCC(=O)*

T1: natriuretic-peptide receptor B (NPR-B) expressed endogenously on NIH-3T3 cells (Murine Embryo Fibroblast cell … (murine, UniProt Q6VVW5 17-1047))
T1 sequence (looked up): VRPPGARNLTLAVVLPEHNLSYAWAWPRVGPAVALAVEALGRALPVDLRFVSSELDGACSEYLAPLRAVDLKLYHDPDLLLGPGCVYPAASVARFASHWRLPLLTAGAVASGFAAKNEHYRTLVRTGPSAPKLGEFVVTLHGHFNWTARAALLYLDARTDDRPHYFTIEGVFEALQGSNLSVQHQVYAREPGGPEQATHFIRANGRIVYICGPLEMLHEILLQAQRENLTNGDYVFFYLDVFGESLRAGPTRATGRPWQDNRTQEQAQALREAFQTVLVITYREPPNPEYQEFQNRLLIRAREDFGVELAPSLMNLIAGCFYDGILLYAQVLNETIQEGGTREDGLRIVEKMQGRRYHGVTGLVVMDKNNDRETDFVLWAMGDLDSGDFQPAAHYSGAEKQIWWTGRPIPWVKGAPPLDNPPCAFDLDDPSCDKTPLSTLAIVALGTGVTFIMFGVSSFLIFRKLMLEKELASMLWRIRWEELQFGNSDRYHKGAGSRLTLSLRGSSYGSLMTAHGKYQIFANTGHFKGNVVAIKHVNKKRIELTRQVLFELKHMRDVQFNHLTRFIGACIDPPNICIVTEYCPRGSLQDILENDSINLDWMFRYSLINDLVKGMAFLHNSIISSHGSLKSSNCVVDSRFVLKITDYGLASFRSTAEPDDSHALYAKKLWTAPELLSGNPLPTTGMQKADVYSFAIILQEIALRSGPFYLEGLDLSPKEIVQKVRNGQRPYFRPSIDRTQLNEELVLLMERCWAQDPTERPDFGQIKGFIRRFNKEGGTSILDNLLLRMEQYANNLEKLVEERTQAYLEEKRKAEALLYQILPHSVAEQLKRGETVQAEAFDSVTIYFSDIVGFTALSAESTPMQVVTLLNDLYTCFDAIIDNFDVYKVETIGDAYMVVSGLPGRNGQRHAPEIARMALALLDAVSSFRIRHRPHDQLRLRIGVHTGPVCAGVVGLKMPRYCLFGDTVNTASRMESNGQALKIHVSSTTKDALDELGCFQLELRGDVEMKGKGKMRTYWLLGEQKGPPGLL


What was measured:
[1] = molecular target: recombinant human NEP (Homo sapiens, UniProt P08473); settings: pH 7.4
From the text: Samples were taken at different time intervals. […] The resulting reaction products were assigned using HPLC-MS.

[2] = test system: wild-type FVB male mice; assay: Growth study in FVB mice after 5 weeks treatment, daily subcutaneous bolus injection or continuous subcutaneous infusion; assay type: in vivo; settings: 50 nmol/kg/d, d 35
Protocol: This study was performed in order to test the effect of daily subcutaneous bolus injection vs. continuous subcutaneous infusion of CNP-38 on animal growth. 21- to 22-days-old wild-type FVB male mice (n = 9/group) were given 50 nmol/kg/d CNP-38 or vehicle (30 mM acetate pH 4 containing 5 % sucrose and 1 % benzylic alcohol) either by daily subcutaneous bolus injection or by continuous subcutaneous infusion in the scapular region over 35 days. Continuous infusion was applied by Alzet osmotic pumps model 1002 for week 1-2, followed by model 1004 for week 3-5. CNP-38 concentrations in the pumps were adjusted for the mean animal weight at study day 7 (pump model 1002) or study day 25 (pump model 1004). Growth was determined at d 35 by total body length measurement and X-ray measurements of the right femur and tibia.

[3] = molecular target: T1, natriuretic-peptide receptor B (NPR-B) …; assay: cell-based or functional assay

Sequence of recombinant human NEP (P08473 whole entry): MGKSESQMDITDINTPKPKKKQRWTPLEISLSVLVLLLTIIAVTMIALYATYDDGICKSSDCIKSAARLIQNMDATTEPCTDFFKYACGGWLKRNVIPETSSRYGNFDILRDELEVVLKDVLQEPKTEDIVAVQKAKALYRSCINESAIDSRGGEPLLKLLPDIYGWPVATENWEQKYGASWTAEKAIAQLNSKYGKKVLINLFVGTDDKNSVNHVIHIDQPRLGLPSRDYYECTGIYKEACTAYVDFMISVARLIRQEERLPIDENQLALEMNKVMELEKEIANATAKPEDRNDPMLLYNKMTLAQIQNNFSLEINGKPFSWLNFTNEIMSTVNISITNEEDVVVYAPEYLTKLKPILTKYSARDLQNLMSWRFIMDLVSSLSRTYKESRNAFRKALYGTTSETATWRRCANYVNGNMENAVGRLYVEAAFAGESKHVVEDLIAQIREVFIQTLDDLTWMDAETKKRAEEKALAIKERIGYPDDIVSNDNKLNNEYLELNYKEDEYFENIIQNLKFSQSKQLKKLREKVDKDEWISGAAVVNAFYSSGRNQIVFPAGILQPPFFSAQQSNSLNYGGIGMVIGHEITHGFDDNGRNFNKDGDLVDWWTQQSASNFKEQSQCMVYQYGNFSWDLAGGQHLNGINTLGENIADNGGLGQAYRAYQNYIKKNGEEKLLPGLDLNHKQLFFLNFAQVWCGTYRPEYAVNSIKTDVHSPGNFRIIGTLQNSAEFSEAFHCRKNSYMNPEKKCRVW

Molecule	half life norm. [1]	total body lenght compared to vehicle treated animals ([2]; continuous subcutaneous infusion)	total body lenght compared to vehicle treated animals ([2]; daily subcutaneous bolus injection)	Residual Activity [%] (cGMP TR-FRET in NIH-3T3 cells, by EC50 against non-PEGylated CNP-38) [3]
CNP-38: CNP-38 SEQ ID No:24, LQEHPNARKYKGANKKGLSKGCFGLKLDRIGSMSGLGC, obtained from CASLO ApS (disulfide 22-38)	12.10 h	121.7%	110.2%	–
{PEG 5 kDa-Hexanoyl(6-maleimido)}-LQEHPNARKYKGANKKGLSKGCFGLKLDRIGSMSGLGC (disulfide 22-38) [permanent N-terminal CNP-38 PEG 5kDa conjugate 15e]	–	–	–	14%
LQEHPNARKYKGANKKGLSKGCFGLKLDRIGSMSGLGC (5 kDa PEG stably attached at the side chain of Lys26 through a maleimido hexanoyl group; disulfide bridge between Cys22 and Cys38) [permanent Lys26 CNP-38 PEG 5 kDa conjugate 19e]	–	–	–	< 1%
LQEHPNARKYKGANKKGLSKGCFGLKLDRIGSMSGLGC (disulfide 22-38; not fully specified (residue 26)) [permanent Lys26 CNP-38 PEG4x10 kDa conjugate 12g]	–	–	–	< 1%
